Test results as given in publication PMC3823275.

Molecular target: Tat13-Strep-Tactin (HIV-1 | Streptomyces avidinii)
Experiment: SDS-PAGE of tetramers after heating

Tat13-Strep-Tactin (designed binder)
stoichiometry N: 4
